Measured values from the nanobody polyreactivity screen of Harvey et al. (2022).

Experiment: yeast display, Sf9 membrane polyspecificity reagent, FACS + sequencing; frameworks hold sequencing errors
Summary of the method: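 Polyreactivity labels are assigned by the sorting gate from which each nanobody was recovered. The gates were low and high (top ~1%), set on anti-HA fluorescence for expression and streptavidin fluorescence for reagent binding. Before sorting, galactose-induced (36–48 hours) yeast display cells were stained for 1 hour at 4 °C with 10% biotinylated, detergent-solubilized Sf9 membrane reagent.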
In the case of “QVQLVESGGGLVQAGGSLRLSCAASGSTFYDYVMGWYRKAPGKERELVAAITGDGTTDYADSVKGRFTISRDNAKNTVYLQMNSLKPEDTAVYYCNADISLDYDYWGQGTQVTVSS”, the “polyreactivity (PSR sort gate)” value was “low polyreactivity”. With “QVQLVESGGGLVQAGGSLRLSCAASGSTSSDYAMGWYRQPPGKERELVASISRSGGSTNYADSVKGRFTISRDNAKNTVYLQMNSLKPEDTAVYYCAARQSYRYYWGKGTQVTVSS” the “polyreactivity (PSR sort gate)” value was “high polyreactivity”. In the case of “QVQLVESGGGLVQAGASLRLSCAASGRIFSFYAMGWYRQAPGKERELVAAISSGGNTYYADSVKGRFTISRDNAKNTVYLQMNSLKPEDTAVYYCATGYRKLSSRYGYWGQGTQVTVSS”, the “polyreactivity (PSR sort gate)” value was “high polyreactivity”. With “QVQLVESGGGLVQAGGSLRLSCAASGSIFVDYAMGWYRQAPGKERELVAAITWRGDTTYYADSVKGRFTISRDNAKNTFYLQMNSLKPEDTAVYYCAAADPVGGEYWGQGTQVTVSS” the “polyreactivity (PSR sort gate)” value was “low polyreactivity”. With “QVQLVESGGGLLQAGGSLRLSCAASGRTSVRYAMGWYRQAPGKERELVAAISWSGGSTYYADSVKGRFTISRDHAKNTVYLQMNCLKPEDTAVYYCNAQHARGYYYWGQGTQVTVSS” the “polyreactivity (PSR sort gate)” value was “low polyreactivity”. In the case of “QLQLVESGGGLVQAGGRLRLSCAASARILSSYAMGSYRQAPGKERELVARISYSGGRTYYADSVKGRFTISRDNAKNTVYLQMNSLKPEDTAVYYCAAVSRVHFSYSYDYWGQGTEVTVSS”, the “polyreactivity (PSR sort gate)” value was “high polyreactivity”. With “QVQLVESGGGLVQAGGSLRLSCAASGLIFVYNAMGWYRQAPGKEREFVAGITSGGSTNYADSVKGRFTISRDNAKNPVYLQMNSLKPEDTAVYDCAAGYYDLYLWWGYDYWGQGTQLTVSS” the “polyreactivity (PSR sort gate)” value was “high polyreactivity”. With “QVQLVESGGGLVQAGGILRISCAASGSISSYYAMGWYRPAPGKERELVAAITSGGRTYFADSVKGRFTISRDNAKNTVYFQMNSLKQEDTAVYYCNARTARNPIKGRASDYWGQGTQVTVSS” the “polyreactivity (PSR sort gate)” value was “high polyreactivity”. In the case of “QVQLVESGGGLVQAGGSLRLSCAASGGTFRVYTMGWYRQAPGKERELVAAIILRGGGTYYADSVKGRFTISRDNAKNPVYLQMNSLNPEDTAVYYCNARSGNRYGPRYDYWGQGTQVTVSS”, the “polyreactivity (PSR sort gate)” value was “high polyreactivity”. In the case of “QVQLVESGGGLVQAGGSLRLSCAASGSILYVYAMGWYRQAPGKERELVATITGRVVSTNYADSVKGRFTISRDNAKNTVYLQMNSLKPEDTAVYYCAARTRRRRGEYDYWGQGTQVTVSS”, the “polyreactivity (PSR sort gate)” value was “high polyreactivity”. For “QVQLVESGGGLVQAGGSLRLSCAASGIIFAGNAMGWYRQAPGKEREFVAAISYRGGTTYYADSVKGRFTISRDNAKNTVYLQMNSLKPEDTAVYYCAADPRSKGFYYGYDYWGQGTQGTVSS”, the “polyreactivity (PSR sort gate)” value was “high polyreactivity”. For “QVQLVESGGGLVQAGGSLRLSCAASGPIFFINAMGSYRQAPGKEREFLATISWSGGSTYYADSVKGRFTISRDNAKNTVYLQMNSLKPEDTAVYYCNAETYGSRWRRQYGYWGQGTQVTVSS”, the “polyreactivity (PSR sort gate)” value was “high polyreactivity”. In the case of “QVQLVESGGGLVQAGGSLRLSCAASGSIFKFNTMGWYRQAPGNERELVAAITRVGSTYYADSVKGRFTISRDNAKNTVYLQMNSLKPEDTAVYYCAVRQRDKFAGGRNDYWGQGTQVTVSS”, the “polyreactivity (PSR sort gate)” value was “high polyreactivity”. In the case of “QVQLVESGGGLVQAGGSLRLSCAASGFIFPGYAMGWYRQAPGKERELVAAISWSGGRTYYADSVKGRFTISRDNAKNTVYLQMNSLKPEDTAVYYCNARYRQITYEYDYWGQGTQVTVSS”, the “polyreactivity (PSR sort gate)” value was “high polyreactivity”. In the case of “QVQLVESGGGLVQAGGSLRLSCAASGNIFPYYAMGWYRQAPGKERELVASISRSGGSTYYADSVKGRFTISRDNAKNTVYLQMNSLKPEDTAVYYCAKRTPYYGFGFFHPARGYGYWGQGTQVTVSS”, the “polyreactivity (PSR sort gate)” value was “low polyreactivity”. For “QVQLVESGGGLGQAGGSLRLICAASGIIFLYYAMGWYRQAPGKERELVAAITRSGGNTYYADSVKGRFTISRDNAKNTVYLQMNSLIPEDTAVYYCAARHNSVRGRGYGYDYWGQGTQVTVSS”, the “polyreactivity (PSR sort gate)” value was “low polyreactivity”. For “QVQLVESGGGLVQAGGSLRLSCAASGFIFDQYAMGWYRQAPGKERELVAAITSGGDTNYADSVKGRFTISRDNAKNTVYFQMNSLKPEDTAVYYCNVDVPGVRFEYWGQGTQVTVSS”, the “polyreactivity (PSR sort gate)” value was “low polyreactivity”. In the case of “QVQLVESGGGLVQAGGSLRLSCAASGRIFYLYTMAWYRQAPGKERELVAAITWSGGRTFYADSVKGRFTISRDNAKNTVYLQMNSLKPEDTAVYYCAARAYDSVGKYYYWGQGTQVNVSS”, the “polyreactivity (PSR sort gate)” value was “high polyreactivity”. For “QVQLVESGGGLVQAGGSLRLSCAASGSIFSPNAMGWYRQAPGKERELVAGITRSGGRTYYADSVKGRFTISRDNAMNTVYLQMNSLKPEDTAVYYCAARAFSYGLKYDYWGQGTQVTVSS”, the “polyreactivity (PSR sort gate)” value was “high polyreactivity”. In the case of “HVQLVESGGGLVQAGGSLRLSCAPSGRTFIGYAMGWYRQAPGKERELVAAITSRGRTNYADSVKGRFTISRDNAKNTVYLQMNSLNPEDTAVYYCAARTYGYWYYGFRGDYWGQGTQVTVSS”, the “polyreactivity (PSR sort gate)” value was “high polyreactivity”. With “QVQLVESGGGLVQAGGSLRLSCAASGSTFYTYAMGWYRQAPGKERELVAAITFSGDSKYYADSVKGRFTISRDNAKNTVYLQMNSLKPEDTAVYYCAALQKRYYRSWVGYDYWGQGTQVTVSS” the “polyreactivity (PSR sort gate)” value was “high polyreactivity”. With “QFQLVESGGGLVQAGGSLRLTCAASGSIFLWYAMGWYRQAPGKERELVAVITSSGGTTYYADSVKGRFTISRDNAKNTVYLQMNCLKPADTAVYYCAADFYRHPPGSLTKLYYYWGQGTQVTVSS” the “polyreactivity (PSR sort gate)” value was “low polyreactivity”. In the case of “QVQLVESGGGLVQAGGSLRLSCAASGIIFYIYAMGWYRQAPGKERELVAAITSSGGSTNYADSVKGRFTISRDNAKNTVYLQMNSLKPEDTAVYYCAAAYRPWQEFYWGQGTQVTVSS”, the “polyreactivity (PSR sort gate)” value was “high polyreactivity”. In the case of “QVQLVESGGGLVQAGGSLRLSCAASVSTFPFYSMGWYRQAPGKERELVAAITSGGSTYADSVKGRFTISRDNAKNTVYLQMNSLKPEDTAVYYCAASWPRWWRFGYWGQGTQVTVSS”, the “polyreactivity (PSR sort gate)” value was “low polyreactivity”. In the case of “QVQLVESGGGLVQAGGSLRLSCAASGFIFDGNAMGWYRQAPGKERELVAAISSDGGTYYADSVKGRFTISRDNAKNTVYLQMNSLKPEDTAVYYCAAEQTLLYSFGWDEYWGQGTQVTVSS”, the “polyreactivity (PSR sort gate)” value was “low polyreactivity”. For “QVQLVESGGGLVQAGGSLRLSCAASGLTFGDYAMGWYRQAPGKEREFVAAISSSTGRTYYADSVKGRFTISRDNAKNTVYLQMNSLKPEDTAVYYCAVRYIYPSHYGYDYWGQGTQVSVSS”, the “polyreactivity (PSR sort gate)” value was “low polyreactivity”. In the case of “QVQLVESGGGLVQAGGSLRLSCAASGLTFNVYAMGWSRQAPGTERELVAALTSGGRTYYADSVKGRFTISRDNEKNTVYLQMNSLKPEDTAVYYCSKSRWYGYSLSGAKRQRSFDYWGQGTQVTVSS”, the “polyreactivity (PSR sort gate)” value was “high polyreactivity”. For “QVQLVESGGGLVQAGGSLRLSCAASGYIFLTNAMGWYRPAPGKERELVAAISVSGGRTYYADSVKGRFTISRDNAKNTVYLQMNSLKPEDTAVYYCNTLLTYGYDYWGQGTQVTVSS”, the “polyreactivity (PSR sort gate)” value was “low polyreactivity”. In the case of “QVQLVESGGGLVQAGGSLRLSCAASGSTFRYYAMGWYRQARGKERELVAAITSSGGRTYYADSVKGRFTISRDNAKNTVYLQMNSLKPEDTAVYYCAAYAYYHTGDDYWGQGTQVTVSS”, the “polyreactivity (PSR sort gate)” value was “high polyreactivity”. In the case of “QVQLVESGGGVVQAGGSLRLSCAASGFTFGVYAMRGYRQAPGKERELVAAISSRGGSTYYADSVKGRFTISRDNPTNPVYLQMNSLKPEDTAVYYCAKRLGNTVGKDDYWGQGTQVTVSS”, the “polyreactivity (PSR sort gate)” value was “low polyreactivity”. With “QVQLVESGGGLVQAGGSLRLSCAASGRTIADNAMGWYRQAPGKEREVVATISYSDSTTYYADSVKGRFTISRDNAKNTVYLQMNSLKPEDTAVYYCAAERLTHWGAFAAYDYWGQGTQVTVSS” the “polyreactivity (PSR sort gate)” value was “low polyreactivity”. With “QVQLQESGGGLVQAGGSLRLSCAASGNIFLGDTMGWYRQAPGKEREFVAGIARGGNPYYADSVKGRFTISRNNAKNTVYLQKNSLKAEDTAVHYCAVQRSHASDYNYWGQGTQVTVSS” the “polyreactivity (PSR sort gate)” value was “low polyreactivity”. In the case of “QVQLVESGGGLVQAGGSLRLSCAASGFICPIYPMGWYRQAPGKERELVAGISWRGGSTYYADSVKGRFTISRDKATYTVYLQMNSLKPEDTAVYYCAVVVQGYSTYYYWGQGTQVTVSS”, the “polyreactivity (PSR sort gate)” value was “high polyreactivity”. With “QVQLVESGGGLVQAGGSLRLSCAASGITFNVNAMGWYRQAPGKERELVARITTSGGSTSYADSVKGRFTISRDNAKNTVYLQMNSLKPEYTAVYYCAADRARYYSEYDYWGQGTQVTVSS” the “polyreactivity (PSR sort gate)” value was “low polyreactivity”. In the case of “QVQLVESGGGLVQAGGSLRLSSAASGRIFPFNAMGWYRQAPGKERELVAAITSSGGRTYYADSVKGRFTISRDNAKNTVYLQMNSLTPEDTAVYYCAGTLVRRARSGPMGYWGQGTQVTVSS”, the “polyreactivity (PSR sort gate)” value was “high polyreactivity”. With “QVQLQESGDGLVQAVGSLRLSCAASGYISGYYYMGWYRQAPGKERELVAGIDAFGSSTNYADCVKGRFTISRDNAKNTVYLQMNSPNPEDTAVYYCAAEFDDWDYHSYWGQGTQVSVSS” the “polyreactivity (PSR sort gate)” value was “low polyreactivity”. In the case of “QVQLVESGGGLVQAGGSLRLSCAASGCIFYSNAMGWYRQAPGKERELVAAIARSGGSTYYADSVKGRFTISRDNAKNPVYLQMNSLKPEDTAVYYCNAKFRKADYDSWGQGTEVTVSS”, the “polyreactivity (PSR sort gate)” value was “high polyreactivity”. With “QVQRVESGGGLVQAGGRLRLSCAASASTLYSYAMGWNRQAPGKEREFVATISQIGVRTYYADSVKGRFTISRDNAKNTVYLQMNSLKPEDTAVYYCAAGYRFTTYLVYNYWGQGTQVTVSS” the “polyreactivity (PSR sort gate)” value was “high polyreactivity”. With “QVQLVESCGGLVQAGGSLRLRCAASGRIIRKYVMAWYRQAPGKERELVAAITGGGSTYYADSVKGRFTISRDNAKNTVYFQKNSLKPEDTAVYYCAADRQSAAHRLWGSEYGYWGQGTQVTVSS” the “polyreactivity (PSR sort gate)” value was “high polyreactivity”. In the case of “QVQLVESGGGLVQAGGSLRLSCAASGRTFPRYTMGRYRQAPRKERELVAASATGGSTNYADSVKGRFTISRDNAKNTVYLHMNSLKPEDTAVYYCAARPYSNRYVLGVYYWGKGTQVTVSS”, the “polyreactivity (PSR sort gate)” value was “high polyreactivity”. With “QVQLVESGGGLVQAGGSLRLSCAPSGSTSFSNDMGWYRQAPGKERELVAAIRSGGSTDYADSVKGRFTISRDNAKNTVYLQMNSLKPEDTEVYYFNATQYDAVYPGYARLYDYWGQGTQVTVSS” the “polyreactivity (PSR sort gate)” value was “low polyreactivity”. For “QVQLVESGGGLVLAGGSLRLSCAASGLILPYYTMGWYREAPGKERELVAAIRRTTGSTFYADSVKGRFTISRDNAKNTVYLQMNSLKPEDTAVYYCNVRRTPYRHWTGGGMDYWGQGTQVTVSS”, the “polyreactivity (PSR sort gate)” value was “high polyreactivity”. In the case of “QVQLVESGGALVQAGGSLRLSCAASGYTFCYNAMGWYRQAPGKEREFVAAISWSGGSTYYADSVKGRFTISRDNAKNTVYLQMYSLKPEDTAVYYCAVEGVYWYVSMYYWGQGTQVTVSS”, the “polyreactivity (PSR sort gate)” value was “low polyreactivity”.
